Data on one protein can be found in publication PMC6390363, “Tau as a mediator of neurotoxicity associated to cerebral amyloid angiopathy” (Acta Neuropathologica Communications, 2019).

The series concerns the molecule itself. Description: SDS-PAGE and Western blot of the stirred peptide; ADan peptide 0.5 mg/mL in PBS without calcium and magnesium, stirred at room temperature for up to 48 h, aliquots at 2, 8, 24 and 48 h; blots with anti-ADan 1699 and the conformational anti-oligomer antibody F11G3. On the technique in general: A western blot detects proteins with antibodies after separation by electrophoresis.

B1: ADan peptide (Danish amyloid) (peptide)
peptide: EASNCFAIRHFENKFAVETLICFNLFLNSQEKHY
notes: the C-terminal part differs from wild-type BRI2; also called ADan amyloid peptide; ADan recombinant peptide; source: synthetic peptide (ThermoFisher Scientific, Fmoc-based solid phase peptide synthesis, purified by HPLC)
Consider B1, for which the binding result was “binds”.
